In patent publication US20200291135A1 (INSPIRNA, published 2020):

T1: rhMer/Fc Chimera (recombinant human MERTK extracellular domain conjugated to an IgG Fc domain) (human, UniProt Q12866 21-505)
T1 construct: extracellular domain; also called hMER recombinant protein; Mer-Fc conjugate; not shown: IgG Fc domain
T1 sequence (looked up): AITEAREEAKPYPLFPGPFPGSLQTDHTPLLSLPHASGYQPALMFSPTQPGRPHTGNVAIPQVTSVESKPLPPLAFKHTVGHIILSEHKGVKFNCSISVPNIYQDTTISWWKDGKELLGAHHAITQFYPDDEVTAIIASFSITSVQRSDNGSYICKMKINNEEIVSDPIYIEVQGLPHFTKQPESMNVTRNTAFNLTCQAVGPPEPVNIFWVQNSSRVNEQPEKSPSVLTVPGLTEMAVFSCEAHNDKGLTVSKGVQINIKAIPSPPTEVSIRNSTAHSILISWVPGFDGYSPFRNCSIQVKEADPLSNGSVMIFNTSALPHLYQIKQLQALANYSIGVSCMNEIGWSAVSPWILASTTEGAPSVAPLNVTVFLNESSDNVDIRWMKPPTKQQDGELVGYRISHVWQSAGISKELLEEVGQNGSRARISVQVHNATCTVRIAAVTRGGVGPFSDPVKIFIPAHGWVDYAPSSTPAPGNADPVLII

T2: human MERTK expressed on cells (SKMEL5 melanoma cells; in vitro differentiated M2 macrophages) (human, UniProt Q12866 21-999)
T2 construct: Endogenous MERTK of human cells; also called surface MERTK
T2 sequence: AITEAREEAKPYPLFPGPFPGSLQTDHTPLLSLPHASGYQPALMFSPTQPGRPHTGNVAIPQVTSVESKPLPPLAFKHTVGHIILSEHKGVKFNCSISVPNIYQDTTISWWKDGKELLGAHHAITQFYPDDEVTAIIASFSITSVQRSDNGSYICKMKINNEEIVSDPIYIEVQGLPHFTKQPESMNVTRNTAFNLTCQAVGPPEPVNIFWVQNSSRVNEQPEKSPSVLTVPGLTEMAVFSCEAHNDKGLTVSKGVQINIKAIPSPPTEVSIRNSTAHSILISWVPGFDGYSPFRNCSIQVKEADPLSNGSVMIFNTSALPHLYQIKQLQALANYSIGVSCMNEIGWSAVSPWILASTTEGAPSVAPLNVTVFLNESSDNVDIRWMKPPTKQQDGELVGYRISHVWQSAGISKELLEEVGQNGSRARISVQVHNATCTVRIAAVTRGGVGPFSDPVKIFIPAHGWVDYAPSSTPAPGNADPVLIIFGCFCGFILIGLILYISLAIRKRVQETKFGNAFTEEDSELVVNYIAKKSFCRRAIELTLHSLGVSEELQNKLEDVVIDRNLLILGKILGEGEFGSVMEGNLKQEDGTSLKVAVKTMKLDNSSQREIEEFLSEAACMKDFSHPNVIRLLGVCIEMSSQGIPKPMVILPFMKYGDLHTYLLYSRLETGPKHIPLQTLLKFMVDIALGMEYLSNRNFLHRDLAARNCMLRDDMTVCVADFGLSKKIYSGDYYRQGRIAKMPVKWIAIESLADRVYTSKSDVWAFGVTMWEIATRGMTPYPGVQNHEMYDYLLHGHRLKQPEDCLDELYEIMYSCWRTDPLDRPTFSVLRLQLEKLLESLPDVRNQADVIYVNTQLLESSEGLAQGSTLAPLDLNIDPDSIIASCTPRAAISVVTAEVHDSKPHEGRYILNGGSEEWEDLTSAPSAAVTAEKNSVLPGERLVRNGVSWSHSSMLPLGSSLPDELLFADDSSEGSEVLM


Experiments:
[1] = molecular target: T1, rhMer/Fc Chimera (recombinant human …); assay: SPR, avidity format: rhMer/Fc Chimera immobilised on CM5 chip, antibody as analyte, 1:1 fit
Protocol: With respect to avidity and affinity measurements using SPR, the protocols below were used.
The activator was prepared with a mixture of 400 mM EDC and 100 mM NHS immediately prior to injection. The CM5 sensor chip was activated for 420 s with the mixture. […] The chip was deactivated by 1 M ethanolamine-HCl. […] 8 concentrations (0.3125, 0.625, 1.25, 2.5, 5, 10, 20 and 40 nM) of the antibodies and running buffer were injected at a flow rate of 30 μL/min for an association phase of 240 s, followed by 4800 s dissociation. 10 mM glycine pH 1.5 as regeneration buffer was injected following every dissociation phase. The chip was regenerated with 10 mM glycine pH 1.5. One surface channel without capturing ligand was used as control surface for reference subtraction. Final data of each interaction was deducted from reference channel and buffer channel data. […] A molecular weight of 150 kDa was used to calculate the molar concentration of the antibodies.

[2] = molecular target: T1, rhMer/Fc Chimera (recombinant human …); assay: SPR, off-rate; ligand rhMer/Fc Chimera, antibody as analyte; below the detection limit of the instrument
[3] = molecular target: T2, human MERTK expressed on cells (SKMEL5 …); assay: cell-based assay similar to that for z10 (flow cytometry on cells)
[4] = molecular target: T1, rhMer/Fc Chimera (recombinant human …); assay: SPR, off-rate; ligand rhMer/Fc Chimera, antibody as analyte

Row | Kd [1] [nM] | koff [2] [s⁻¹] | EC50 [3] [nM] | koff [4] [s⁻¹] | Binder
1 | 0.00299 | < 1e-06 | 7.9 | – | z11 antibody (antibody, human IgG1, kappa, V domains shown) VH: QVQLVQSGAEVKKPGASVKVSCKASGYTFTNYGMNWVRQAPGQGLEWMGWINTYTGEPTYADDFKGRVTMTLDTSTSTAYMELRSLRSDDMAVYYCARKSTVVSRYFDVWGQGTTVTVSS VL: DIQMTQSPSFLSASVGDRVTITCKASQDVGDAVTWYQQKPGKAPKLLIYWASTRHTGVPDRFSGSGSGTDFTLTISSLQPEDFATYYCQQYRSYPLTFGQGTKLEIKR
2 | 0.00368 | < 1e-06 | 7.6 | – | z13 antibody (antibody, human IgG1, kappa, V domains shown) VH: QVQLVQSGAEVKKPGASVKVSCKASGYTFTNYGMNWVRQAPGQGLEWMGWINTYTGEPTYADDFKGRVTFTLDTSTSTAYMELRSLRSDDMAVYYCARKSTVVSRYFDVWGQGTTVTVSS VL: DIQMTQSPSFLSASVGDRVTITCKASQDVGDAVTWYQQKPGKAPKLLIYWASTRHTGVPDRFSGSGSGTDFTLTISSLQPEDFATYYCQQYRSYPLTFGQGTKLEIKR
3 | – | – | – | 7e-06 | W3725-xAb-IgG1K/(S34+S35) (antibody, V domains shown, also called chimeric anti-MERTK antibody) VH: QIQLVQSGPELKKPGETVKISCKASGYTFTNYGMNWVKQAPGKGLKWMGWINTYTGEPTYADDFKGRFVFSLETSASTAYLQINNLKNEDMATYFCARKSTVVSRYFDVWGAGTTVTVSS VL: DIVLTQSHKFMSTSVGDRVSITCKASQDVGDAVTWCQQKPGQPPKLLIYWASTRHTGVPDRFTGSGSGTDFTLTINNVQSEDLADYFCQQYRSYPLTFGAGTKLELKR
